The values that follow come from patent US20080009025.

In one data set the target is T1, D978A-PIFtide.
T1 chain: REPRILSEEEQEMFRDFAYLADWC

Data set [1] deals with GST-PKBα (full length), P31749.
Data set [2] addresses GST-PKBα[F472A] (full length), P31749.
In data set [3] the target is GST-PKBα[S473D] (full length), P31749.
The target of data set [4] is GST-SGK1 (lacking the N-terminal 60 amino acids), O00141.
The target in data set [5] is GST-SGK1[T422D] (lacking the N-terminal 60 amino acids), O00141.
Data set [6] has as its target GST-ΔPH-PKBα[S473D], P31749.
Data set [7] has as its target His-412E-p70 S6K-T2, P23443.
The target in data set [8] is His-p70 S6K-T2 (p70 S6K with N-terminal His tag lacking the carboxy terminal 104 residues), P23443.
Substrate in data set [9]: PIF peptide with Asp978 changed to phosphoserine
For data set [10], the target named is T2, PIFtide (24 residue synthetic peptide encompassing the PDK1 binding site on PIF).
T2 chain: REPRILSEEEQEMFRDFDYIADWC

Data set [11] addresses PDKtide (39 amino acid polypeptide, T308tide fused to PIFtide).
For another data set, the target named is T3, T308tide.
T3 chain: KTFCGTPEYLAPEV

Numbering of substitutions follows the chain as printed. Names may count otherwise.

GST-PKBα (full length), P31749, sequence (P31749 whole entry, looked up): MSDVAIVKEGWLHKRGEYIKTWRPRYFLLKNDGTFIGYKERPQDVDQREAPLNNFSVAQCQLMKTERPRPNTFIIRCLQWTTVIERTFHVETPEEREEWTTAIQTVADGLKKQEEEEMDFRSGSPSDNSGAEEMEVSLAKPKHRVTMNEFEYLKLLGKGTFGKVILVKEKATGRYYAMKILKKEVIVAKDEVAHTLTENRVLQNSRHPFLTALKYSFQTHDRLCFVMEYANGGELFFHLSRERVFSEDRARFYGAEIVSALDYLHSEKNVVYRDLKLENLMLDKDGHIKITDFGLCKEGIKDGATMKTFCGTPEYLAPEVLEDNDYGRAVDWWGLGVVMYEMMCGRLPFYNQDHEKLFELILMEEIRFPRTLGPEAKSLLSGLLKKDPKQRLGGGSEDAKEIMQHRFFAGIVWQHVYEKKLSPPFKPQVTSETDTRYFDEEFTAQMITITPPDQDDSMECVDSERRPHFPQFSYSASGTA
GST-ΔPH-PKBα, P31749, sequence (P31749 whole entry, looked up, stated change not applied): as the sequence (P31749 whole entry, looked up) above
GST-SGK1[T422D] (lacking the N-terminal 60 amino acids), O00141, sequence (O00141 whole entry, looked up, stated change not applied): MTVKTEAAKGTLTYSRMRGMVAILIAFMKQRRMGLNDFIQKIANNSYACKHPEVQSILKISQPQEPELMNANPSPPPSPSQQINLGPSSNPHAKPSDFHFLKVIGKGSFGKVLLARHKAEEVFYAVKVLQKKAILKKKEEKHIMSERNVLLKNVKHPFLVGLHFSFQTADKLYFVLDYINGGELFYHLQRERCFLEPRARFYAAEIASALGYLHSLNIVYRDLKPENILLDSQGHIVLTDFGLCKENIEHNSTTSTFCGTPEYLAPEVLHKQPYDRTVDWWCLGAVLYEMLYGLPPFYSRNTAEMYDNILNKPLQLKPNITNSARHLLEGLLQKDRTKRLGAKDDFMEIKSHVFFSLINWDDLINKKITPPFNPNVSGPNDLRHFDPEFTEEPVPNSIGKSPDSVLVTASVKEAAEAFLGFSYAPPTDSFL
GST-SGK1 (lacking the N-terminal 60 amino acids), O00141, sequence (O00141 whole entry, looked up): as the sequence (O00141 whole entry, looked up, stated change not applied) above
GST-PKBα[S473D] (full length), P31749, sequence (P31749 whole entry S473D, looked up): as the sequence (P31749 whole entry, looked up) above, with S473D counted along it
GST-ΔPH-PKBα[S473D], P31749, sequence (P31749 whole entry S473D, looked up): as the sequence (P31749 whole entry, looked up) above, with S473D counted along it
His-p70 S6K-T2 (p70 S6K with N-terminal His tag lacking the carboxy terminal 104 residues), P23443, sequence (P23443 whole entry, looked up): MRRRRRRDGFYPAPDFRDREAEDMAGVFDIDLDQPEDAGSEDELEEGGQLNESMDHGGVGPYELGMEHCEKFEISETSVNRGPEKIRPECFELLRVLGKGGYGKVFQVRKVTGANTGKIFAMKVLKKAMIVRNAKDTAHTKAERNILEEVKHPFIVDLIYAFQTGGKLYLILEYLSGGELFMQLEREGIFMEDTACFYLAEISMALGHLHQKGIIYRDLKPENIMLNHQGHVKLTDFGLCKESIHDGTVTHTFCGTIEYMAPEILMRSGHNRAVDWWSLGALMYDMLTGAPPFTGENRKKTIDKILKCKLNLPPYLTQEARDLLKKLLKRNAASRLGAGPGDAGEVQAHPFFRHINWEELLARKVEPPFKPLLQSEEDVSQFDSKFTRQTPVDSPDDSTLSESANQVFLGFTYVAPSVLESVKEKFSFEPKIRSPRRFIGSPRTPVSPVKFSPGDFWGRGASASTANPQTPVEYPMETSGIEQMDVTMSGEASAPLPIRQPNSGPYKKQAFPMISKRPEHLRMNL
His-412E-p70 S6K-T2, P23443, sequence (P23443 whole entry, looked up): as above
GST-PKBα[F472A] (full length), P31749, sequence (P31749 whole entry F472A, looked up): as the sequence (P31749 whole entry, looked up) above, with F472A counted along it

B1: GST-PDK1 wild type (full length PDK1, residues 1-556, N-terminal GST) (protein)
chain: MARTTSQLYDAVPIQSSVVLCSCPSPSMVRTQTESSTPPGIPGGSRQGPAMDGTAAEPRPGAGSLQHAQPPPQPRKKRPEDFKFGKILGEGSFSTVVLARELATSREYAIKILEKRHIIKENKVPYVTRERDVMSRLDHPFFVKLYFTFQDDEKLYFGLSYAKNGELLKYIRKIGSFDETCTRFYTAEIVSALEYLHGKGIIHRDLKPENILLNEDMHIQITDFGTAKVLSPESKQARANSFVGTAQYVSPELLTEKSACKSSDLWALGCIIYQLVAGLPPFRAGNEYLIFQKIIKLEYDFPEKFFPKARDLVEKLLVLDATKRLGCEEMEGYGPLKAHPFFESVTWENLHQQTPPKLTAYLPAMSEDDEDCYGNYDNLLSQFGCMQVSSSSSSHSLSASDTGLPQRSGSNIEQYIHDLDSNSFELDLQFSEDEKRLLLEKQAGGNPWHQFVENNLILKMGPVDKRKGLFARRRQLLLTEGPHLYYVDPVNKVLKGEIPWSQELRPEAKNFKTFFVHTPNRTYYLMDPSGNAHKWCRKIQEVWRQRYQSHPDAAVQ
Take B1: the figures for the “phosphorylation of GST-p70 S6K-T2 by GST-PDK1 in vitro (32P autoradiography), 4 µM peptide” value (with D978A-PIFtide; in [9]) were “poorly inhibited the phosphorylation of GST-p70 S6K-T2 by PDK1 slightly” and “prevented PDK1 from phosphorylating GST-p70 S6K-T2”, respectively. In addition, the “phosphorylation of GST-p70 S6K-T2 by GST-PDK1 in vitro (32P autoradiography), 1.5 µM” value with GST-D978A-PIF is given as “poorly inhibited the phosphorylation of GST-p70 S6K-T2 by PDK1 slightly”. The relative phosphorylation of the substrate by PDK1 in vitro (PKB[S473D] = 100), +PIFtide in data set [1] is 19.3 relative; in [3], 85.4 relative; in data set [4], 3.8 relative; in data set [5], 9.6 relative; with GST-ΔPH-PKBα, P31749 it was 0.25 relative; in data set [6], 0.2 relative. The relative phosphorylation of the substrate by PDK1 in vitro (PKB[S473D] = 100), +PIFtide in data set [7] is 7.4 relative; in [8], 0.58 relative. The relative phosphorylation of the substrate by PDK1 in vitro (PKB[S473D] = 100), no PIFtide in data set [1] came out at 28 relative; in data set [4], 8 relative; in data set [5], 71 relative; with GST-ΔPH-PKBα, P31749, 0.4 relative; in data set [6], 0.9 relative; in [7], 54 relative. Also, the “rate of phosphorylation by PDK1 in vitro, against the wild type enzyme” value in data set [2] was “PKB[F472A] was phosphorylated at a similar rate to the wild type PKB”. Besides, the relative phosphorylation of the substrate by PDK1 in vitro (this value taken as 100; 2.6 mol/mol PDK1/min), no PIFtide in data set [3] turned out to be 100 relative. In addition, the relative phosphorylation of the substrate by PDK1 in vitro (32P, SDS-PAGE, PhosphoImager; PKB[S473D] with PtdIns(3,4,5)P3 = 100), no PIFtide in [8] was found to be 10.4 relative. The “phosphorylation of GST-p70 S6K-T2 (wt and 252A) at Thr412 by wt-GST-PDK1, T412-P immunoblot” value in [10] is “band in every lane without PIF peptide, no band in the neighbouring lane with PIF peptide (4 µM), for PDK1 from 293 cells and from E. coli”. Moreover, the “phosphorylation of GST-p70 S6K-T2 at Thr412 by GST-PDK1 (T412-P immunoblot), 4 µM peptide” value in [10] is on record as “The 24 residue PIF peptide prevented PDK1 from phosphorylating the p70 S6K at Thr412”.

B2: GST-PDK1[L155E] (protein)
chain: B1 chain with L155E
On to B2, for which the relative phosphorylation of the substrate by PDK1-L155E in vitro (PKB[S473D] with wild type PDK1 = 100), +PIFtide amounted to 35 relative in data set [1]; 162 relative in [3]; 2.4 relative in [4]; 3.4 relative in data set [5]; 0.25 relative with GST-ΔPH-PKBα, P31749; 0.15 relative in data set [6]. Further, the relative phosphorylation of the substrate by PDK1-L155E in vitro (PKB[S473D] with wild type PDK1 = 100), +PIFtide in data set [7] was 0.108 relative; in data set [8], 0.27 relative. Moreover, the relative phosphorylation of the substrate by PDK1-L155E in vitro (PKB[S473D] with wild type PDK1 = 100), no PIFtide was determined as 35 relative in [1]; 178 relative in [3]; 3.3 relative in data set [4]; 3.5 relative in data set [5]; 0.23 relative with GST-ΔPH-PKBα, P31749; 0.18 relative in data set [6]. Besides, the relative phosphorylation of the substrate by PDK1-L155E in vitro (PKB[S473D] with wild type PDK1 = 100), no PIFtide was determined as 0.5 relative in data set [7] and 0.6 relative in data set [8].

B3: His-PDK1 (PDK1 residues 52-556 with an N-terminal hexahistidine tag) (protein)
chain: HHHHHHDGTAAEPRPGAGSLQHAQPPPQPRKKRPEDFKFGKILGEGSFSTVVLARELATSREYAIKILEKRHIIKENKVPYVTRERDVMSRLDHPFFVKLYFTFQDDEKLYFGLSYAKNGELLKYIRKIGSFDETCTRFYTAEIVSALEYLHGKGIIHRDLKPENILLNEDMHIQITDFGTAKVLSPESKQARANSFVGTAQYVSPELLTEKSACKSSDLWALGCIIYQLVAGLPPFRAGNEYLIFQKIIKLEYDFPEKFFPKARDLVEKLLVLDATKRLGCEEMEGYGPLKAHPFFESVTWENLHQQTPPKLTAYLPAMSEDDEDCYGNYDNLLSQFGCMQVSSSSSSHSLSASDTGLPQRSGSNIEQYIHDLDSNSFELDLQFSEDEKRLLLEKQAGGNPWHQFVENNLILKMGPVDKRKGLFARRRQLLLTEGPHLYYVDPVNKVLKGEIPWSQELRPEAKNFKTFFVHTPNRTYYLMDPSGNAHKWCRKIQEVWRQRYQSHPDAAVQ
Consider B3, for which the “rate of phosphorylation at 100 µM, against T308tide” value in data set [11] is given as “PDKtide was phosphorylated at a rate over 100-fold greater than that using T308tide”. In addition, in the data set with T308tide, the “Km of PDK1 for the peptide substrate” value is reported as “compared to >10 mM for T308tide”.
